Here are results for 17 sequences from the supplement of paper PMC9170038.

Data set [1] relates to MS2 coat protein. Put plainly: apparent KD of MS2 coat protein, switch ON state; designed switch direction (-1 OFF switch, 1 ON switch): -1; higher = weaker reporter binding. To be noted: FMN input: 0 or 200 uM; Eterna round: R93 (includes R88 designs). The method in brief: (§1)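 In 100 mM Tris-HCl pH 7.5 with 80 mM KCl and 4 mM MgCl2, and without or with constant ligand, SNAP-549-labelled MS2 coat protein was titrated in twofold steps from 0.7 or 1.5 nM to 3 µM. Per-step times went from 0.8–1.5 h down to 10–20 min. The RNA switches were transcribed on-chip from Illumina sequencing clusters, and apparent KD is the per-design median of normalised cluster binding-curve fits.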

For data set [2], the system named is MS2 coat protein. Nature of the data set: apparent KD of MS2 coat protein, switch OFF state (with FMN for OFF switches, without FMN for ON switches); designed switch direction (-1 OFF switch, 1 ON switch): -1; higher = weaker reporter binding. As to conditions: FMN input: 0 or 200 uM; Eterna round: R93 (includes R88 designs). In outline:
as §1

Regarding “AAAAUGUCAGGAUAUGUAGCAAAAAGUGAUCCAAAAAAGCUACAGAAGGGACAUGAGGAUCACCCAUGUAAAAA [Ex4: 932]”, the “apparent KD of MS2 coat protein” value in data set [1] was found to be 244 nM; in data set [2], 406 nM.
In the case of “GGAGUGCAAGGAUAUACAUGAGGAUCACCCAUGUGAGAGAAAAAAGUGAGAAAGAAAAGUAGAAGGUGCGUUCG [salish99-ex3-131]”, the “apparent KD of MS2 coat protein” value worked out at 29.2 nM in data set [1] and 44.8 nM in data set [2].
In the case of “AAAAAUUGAGGAUAUACGAACAUGUCAAAAGACGUGAAGGGACAUGAGGAUCACCCAUGUAGAAGGCGAAAAAA [JL Loop Breaker 2]”, the “apparent KD of MS2 coat protein” value stood at 41.3 nM in data set [1] and 19.7 nM in data set [2].
As for “AAAAAACAUGAGGAUCACCCAUGUGAGGAUAUUGGUAUUCAAGAUAUAAUCUUAAUAGCGAGAAGGCGCAAAAA [Brourd 613 Mod 17 - Jieux - Exclusion 1]”, the figures for the “apparent KD of MS2 coat protein” value in data set [1] and in data set [2] were 24.1 nM and 21.9 nM, respectively.
For the sequence “AAAUGCUGAGGAUAUACAUGAGGAUCACCCAUGUGAAAUAAAAAAUGUGUGUAAUCGUGUAGAAGGCAGCAUAA [Exclusion 3.13 (FMN+ favored more)]”, the “apparent KD of MS2 coat protein” value in data set [1] was determined as 21.6 nM; in data set [2], 18.1 nM.
For “AAAAAGGAAGGAUAUACGAACAUGUCAAAAGACGUGAAGGGACAUGAGGAUCACCCAUGUAGAAGGUUUAAAAA [JL Wide Open 25]”, the “apparent KD of MS2 coat protein” value in data set [1] turned out to be 39.3 nM; in data set [2], 18.6 nM.
“AAAAUGUCAGGAUAUGCGAAGGCGUCUGAUAGACGAGGCUAGCAGAAGGGACAUGAGGAUCACCCAUGUAAAAA [Power strip]”: the figures for the “apparent KD of MS2 coat protein” value in data set [1] and in data set [2] were 82.2 nM and 179 nM, respectively.
With “AAUAUCGGAGGAUAUGCAUAGAUAAAGAAUUAUGUUAAAACACAUGAGGAUCACCCAUGUAGAAGGCCGAUAAA [AJ 8]”, the “apparent KD of MS2 coat protein” value in data set [1] stood at 22.2 nM; in data set [2] it was 88 nM.
In the same order, the values of “CUCUUGUGAGGAUAUAGAAGAAAAGAAGAGAAAGAAAAGAACUAGAAGGCACAUGAGGAUCACCCAUGUAAGAA [EteRNA is fun!]” are 34.3 nM and 39.9 nM.
“AGGAAACAUGAGGAUCACCCAUGUCAGGAUAUAUGAAAGAAAAGAAAAGAAAGAAGAAGUAGAAGGGACAAGAA [Ka]”: the “apparent KD of MS2 coat protein” value in data set [1] came to 29.8 nM; in data set [2] it was 29.9 nM.
For the sequence “AAGAAGCAAGGAUAUACAAAAUAAAAGAAAAGAAAGAAAGAACAUGAGGAUCACCCAUGUAGAAGGUGCAAGAA [Djedkheperew]”, the “apparent KD of MS2 coat protein” value in data set [1] worked out at 31.1 nM; in data set [2] it was 31 nM.
In the same order, the values of “AAAAGUAGAGGAUAUACAUGAGGAUCACCCAUGUAGAAAGGAAGUGUAUAUAUGGCAUGUAGAAGGCUACAUGA [Banishment 8 - Jieux - Exclusion 3]” are 27.4 nM and 34.2 nM.
For the sequence “AUAGGCCUAGGAUAUACAUGAGGAUCACCCAUGUAAAUAAAUCGAUCAUGAUAAACGUGUAGAAGGAGGAAUAA [JR_Exc003_Sub206]”, the “apparent KD of MS2 coat protein” value was 28.8 nM in data set [1] and 39.5 nM in data set [2].
Consider “UGUUGGCGAGGAUAUACAUGAGGAUCACCCAUGUGAGAGAAAAAAGUGAGAAAGAAAAGUAGAAGGCGCUGACC [salish99-ex3-10]”, for which the entries for the “apparent KD of MS2 coat protein” value in data set [1] and in data set [2] were 68.5 nM and 203 nM, respectively.
In the same order, the values of “GAAAAGUGAGGAUAUAGCAAAGGUCACGAAAGUGACAAAGGCUAGAAGGCACAUGAGGAUCACCCAUGUCCAAG [Mat - Exclusion 4 - Eli mod - D99]” are 20.3 nM and 49.9 nM.
The corresponding values for “AGUCAUACAGGAUAUACAUGAGGAUCACCCAUGUAUAUCCAAAAAAAGUGAUCCUCAUGUAGAAGGGUAUGACA [EX3 203: Super Stable 3]” are 12 nM and 8.92 nM.
For “AAAAAGCGAGGAUAUACAUGAGGAUCACCCAUGUCAAACGGUAAGACCGCAGGAAAAAGUAGAAGGCGCAAAAA [Exclusion3-02]”, the “apparent KD of MS2 coat protein” value stood at 65.9 nM in data set [1] and 96.8 nM in data set [2].
